Data published in patent publication US8058034B2, “Mutated D-aminotransferase and method for producing optically active glutamic acid derivatives using the same” (Ajinomoto Co., Inc., priority 2002, dated 2011).

Columns and labels:
[1] = Stability of IHOG in amination reaction solution with no microbial cell addition; format: physicochemical; conditions: 300 mM 4R,S-IHOG, pH 8.3, 37° C., no cells
Protocol: Another reason therefor would be instability of IHOG, the material for producing monatin, in a certain pH. In order to test stability of IHOG in the amination reaction of IHOG, the present inventors measured a change of IHOG concentration with time in an amination reaction solution of IHOG with no microbial cell addition. The reaction was performed by shaking a test tube containing 1 ml of reaction solution composed of 100 mM potassium phosphate buffer (pH 8.3), 300 mM 4R,S-IHOG, 600 mM DL-Ala and 1 mM pyridoxal-5′-phosphate at 37° C. for 40 hours. As a result, a residual ratio of 4R,S-IHOG was decreased to 81% after 16 hours, 70% after 24 hours and 57% after 40 hours, respectively. […] It is presumed that this phenomenon is due to a decomposition reaction where IHOG is decomposed into 3-indole-pyruvic acid and pyruvic acid and a cyclization reaction of IHOG, to consume IHOG in the reaction solution before being converted to monatin. That is, the reaction catalyzed by the D-aminotransferase derived from the genus Bacillus or Paenibacillus is not sufficiently fast, and a part of IHOG becomes unavailable for the amination due to the decomposition and the cyclization before the amination. This is thought to be one reason why (2R,4R) monatin can not be efficiently produced.

[2] = IHOG amination reaction with mutated BSDAT-expressing E. coli (Example 8); format: biochemical; conditions: 50 mM 4R,S-IHOG, 16 hours
Protocol: E. coli transformants containing each plasmid with mutated BSDAT gene or pUCBSDAT were inoculated to 3 mL of LB medium (1 g/dL of bacto tryptone, 0.5 g/dL of yeast extract and 1 g/dL of NaCl) containing 0.1 mg/mL of ampicillin and 0.1 mM isopropyl-1-thio-β-D-galactopyranoside (IPTG). The medium was then cultured with shaking at 37° C. for 16 hours. Cells were collected from the cultured medium and washed to prepare the BSDAT-expressing E. coli. Expression of each mutated BSDAT was confirmed by SDS-PAGE. The cells harvested from 250 μL of the cultured medium were resuspended in 500 μL of an SDS-PAGE sample buffer and boiled for 10 minutes for cell lysis and denaturation, and 5 to 10 μL of the supernatant obtained by centrifugation (10,000×g, 10 min.) was subjected to SDS-PAGE.
Using a series of mutated BSDAT-expressing E. coli strains prepared in Example 7, 2R-monatin was produced from 4R,S-IHOG. The microbial cells prepared by centrifuging 400 μL of the cultured medium were suspended in the reaction solution having the following composition.
(§1) Reaction solution of IHOG: 100 mM Tris-HCl (pH 8.0), 50 mM 4R,S-IHOG, 200 mM D-alanine, 1 mM pyridoxal-5′-phosphate and 0.5% (v/v) toluene
The suspension was incubated at 30° C. for 16 hours, and then the amount of 2R-monatin thus produced was analyzed.

[3] = IHOG amination with washed cells of BSDAT-expressing E. coli (Example 6); format: biochemical; conditions: 50 mM IHOG, 200 mM D-alanine, pH 7.6, 30° C., 18 hours, cells 5% (w/v)
Protocol: E. coli transformants containing pUCBSDAT were cultivated in the LB medium (1 g/dL of bacto tryptone, 0.5 g/dL of yeast extract and 1 g/dL of NaCl) containing 0.1 mg/mL of ampicillin at 37° C. for 16 hours. Subsequently, 1 mL of thus obtained broth was added to a 500 mL Sakaguchi flask in which contains 50 mL of the LB medium, and main cultivation was performed at 37° C. After 2.5 hours of cultivation, isopropyl-1-thio-β-D-galactopyranoside (IPTG) was added thereto at a final concentration of 1 mM, and the cultivation was performed for additional 4 hours. Cells were harvested from the cultured medium and washed to prepare the cells of BSDAT-expressing E. coli.
The microbial cells prepared in the above (2) were suspended at 5% (w/v) in 1 mL of a reaction liquid composed of 100 mM Tris-HCl (pH 7.6), 50 mM IHOG, 200 mM D-alanine, 1 mM pyridoxal-5′-phosphate and 0.5% (v/v) toluene. One ml of the suspension was then transferred to a 10 mL test tube, and incubated with shaking at 30° C. for 18 hours. After the incubation, the amount of 2R-monatin thus produced was determined. As a result, 13.8 mM (2R,4R)-monatin and 12.7 mM (2R,4S)-monatin were produced from IHOG.

[4] = Amination reaction of PHOG with mutated BMDAT-expressing E. coli (Example 5); format: biochemical; conditions: 50 mM 4R,S-PHOG, 16 hours
Protocol: (§2) E. coli transformants containing each plasmid with mutated BMDAT gene or pUCBMDAT were inoculated to 3 mL of LB medium (1 g/dL of bacto tryptone, 0.5 g/dL of yeast extract and 1 g/dL of NaCl) containing 0.1 mg/mL of ampicillin and 0.1 mM isopropyl-1-thio-β-D-galactopyranoside (IPTG). The medium was then cultured with shaking at 37° C. for 16 hours. Cells were harvested from the cultured medium and washed Expression of each mutated BMDAT was confirmed with SDS-PAGE. Cells harvested form 250 μL of the cultured broth were resuspended in 500 μL of an SDS-PAGE sample buffer and boiled for 10 minutes for cell lysis and denaturation. 5 to 10 μL of the supernatant obtained by centrifugation (10,000×g, 10 min.) was subjected to SDS-PAGE.
(§3) Using a series of mutated BMDAT-expressing E. coli strains prepared in Example 4 as a catalyst, 2R-monatin was produced from 4R,S-IHOG, and 2R-PHG was produced from 4R,S-PHOG. The microbial cells collected by centrifuging 400 μL of the cultured medium were suspended in a reaction solution having the following composition.
Reaction solution of PHOG: 100 mM Tris-HCl (pH 8.0), 50 mM 4R,S-PHOG, 200 mM D-alanine, 1 mM pyridoxal-5′-phosphate and 0.5% (v/v) toluene
(§4) The suspension was incubated at 30° C. for 16 hours, and then the amount of 2R-monatin and 2R-PHG thus produced were determined.

[5] = DAT activity of mutated BMDAT: transamination from D-alanine to α-ketoglutaric acid, coupled lactate dehydrogenase assay; format: biochemical, E. coli; conditions: 10 mM D-alanine, 10 mM α-ketoglutaric acid, pH 8.0, 30° C., cell sonicate supernatant
Protocol: E. coli transformants containing each plasmid with mutated BMDAT gene or pUCBMDAT were inoculated to 3 mL of casamino acid medium (0.5 g/dL of ammonium sulfate, 0.14 g/dL of KH2PO4, 0.23 g/dL of citrate 2Na.3H2O, 0.1 g/dL of MgSO4.7H2O, 2 mg/dl of FeSO4, 2 mg/dl of MnSO4, 2 mg/dL of pyridoxine hydrochloride, 0.1 mg/dL of thiamine, 1 g/dL of casamino acid, 0.3 g/dL of glycerol, pH 7.5) containing 0.1 mg/mL of ampicillin and 0.1 mM IPTG. The medium was then cultured with shaking at 37° C. for 16 hours. Cells were collected from 1 mL of the cultured medium, washed, suspended in 1 mL of 20 mM Tris-HCl (pH 7.6), and ultrasonically disrupted at 4° C. for 30 min. The sonicates were centrifuged at 15,000 rpm for 5 minutes, and the supernatant thereof was used as an enzyme catalyst. For the measurement of the D-aminotransferase activity (hereinbelow referred to as DAT activity), the transamination activity with D-alanine as the amino donor to α-ketoglutaric acid was enzymatically measured by analyzing pyruvic acid produced from D-alanine as the reaction proceeds.
Reaction conditions: 100 mM Tris-HCl (pH 8.0), 0.2 mM NADH, 0.1 mM pyridoxal-5′-phosphate, 5 U/mL lactate dehydrogenase, 10 mM D-alanine, 10 mM α-ketoglutaric acid, 30° C. A reduction of absorbance at 340 nm was measured.

[6] = IHOG amination reaction with mutated BMDAT-expressing E. coli (Example 10); format: biochemical; conditions: 100 mM 4R,S-IHOG, 16 hours
Protocol: as §3, with “9,” for “4 as a catalyst,”, “prepared” for “collected”
Reaction solution of IHOG: 100 mM Tris-HCl (pH 8.0), 100 mM 4R,S-IHOG, 400 mM D-alanine, 1 mM pyridoxal-5′-phosphate and 0.5% (v/v) toluene
(§5) The suspension was incubated at 30° C. for 16 hours, and then the amount of 2R-monatin and 2R-PHG thus produced were analyzed.

[7] = PHOG amination reaction with mutated BMDAT-expressing E. coli (Example 10); format: biochemical; conditions: 100 mM 4R,S-PHOG, 16 hours
Protocol: as §3, with “9,” for “4 as a catalyst,”, “prepared” for “collected”
Reaction solution of PHOG: 100 mM Tris-HCl (pH 8.0), 100 mM 4R,S-PHOG, 400 mM D-alanine, 1 mM pyridoxal-5′-phosphate and 0.5% (v/v) toluene
as §5

[8] = PHOG amination with washed cells of BMDAT-expressing E. coli (Example 3); format: biochemical; conditions: 50 mM PHOG, 200 mM D-alanine, pH 8.0
Protocol: (§6) E. coli transformants with pUCBMDAT were inoculated to 3 mL of LB medium (1 g/dL of bacto tryptone, 0.5 g/dL of yeast extract and 1 g/dL of NaCl) containing 0.1 mg/mL of ampicillin and 0.1 mM isopropyl-1-thio-β-D-galactopyranoside (IPTG). The medium was then cultured with shaking at 37° C. for 16 hours. Cells were collected from the cultured medium and washed to prepare cells of the BMDAT-expressing E. coli.
The reaction was also performed in a reaction liquid composed of 100 mM Tris-HCl (pH 8.0), 50 mM PHOG, 200 mM D-alanine, 1 mM pyridoxal-5′-phosphate and 0.5% (v/v) toluene. The amount of 2R-PHG thus produced after the incubation was determined. As a result, 17.1 mM of (2R,4S)-PHG and 19.2 mM of (2R,4R)-PHG were produced.

[9] = IHOG amination with washed cells of BMDAT-expressing E. coli (Example 3); format: biochemical; conditions: 50 mM IHOG, 200 mM D-alanine, pH 8.0, 33° C., 16 hours, cells 2% (w/v)
Protocol: as §6
The microbial cells prepared in (1) above were suspended at 2% (w/v) in 1 mL of a reaction liquid composed of 100 mM Tris-HCl (pH 8.0), 50 mM IHOG, 200 mM D-alanine, 1 mM pyridoxal-5′-phosphate and 0.5% (v/v) toluene. The suspension was then incubated with shaking at 33° C. for 16 hours, and the amount of 2R-monatin thus produced was determined. As a result, 16.4 mM of (2R,4S)-monatin and 17.0 mM of (2R,4R)-monatin were produced.

[10] = Amination reaction of IHOG with mutated BMDAT-expressing E. coli (Example 5); format: biochemical; conditions: 50 mM 4R,S-IHOG, 16 hours
Protocol: as §2, §3, §1, §4

[11] = 200 mM D-alanine, pH 8.0, 30° C.
[12] = 400 mM D-alanine, pH 8.0, 30° C.

Which results are given for `O=C(O)C(=O)CC(O)(Cc1c[nH]c2ccccc12)C(=O)O` (racemic) [4R,S-IHOG, 4-(indol-3-ylmethyl)-4-hydroxy-2-oxoglutaric acid]?
residual ratio of 4R,S-IHOG ([1]; after 16 hours): 81%; residual ratio of 4R,S-IHOG ([1]; after 24 hours): 70%

B1: PUCBSDAT: wild-type D-transaminase derived from Bacillus sphaericus ATCC 10208 (SEQ ID NO:4), expressed in E. coli (protein, listed as Bacillus sphaericus)
chain: MAYSLWNDQIVEEGSITISPEDRGYQFGDGIYEVIKVYNGHMFTAQEHIDRFYASAEKIRLVIPYTKDVLHKLLHDLIEKNNLNTGHVYFQITRGTTSRNHIFPDASVPAVLTGNVKTGERSIENFEKGVKATLVEDVRWLRCDIKSLNLLGAVLAKQEASEKGCYEAILHRGDIITECSSANVYGIKDGKLYTHPANNYILNGITRQVILKCAAEINLPVIEEPMTKGDLLTMDEIIVSSVSSEVTPVIDVDGQQIGAGVPGEWTRKLQKAFEAKLPISINA
What does the source list for B1?
2R,4R-monatin [2, 11]: 13.8 mM; 2R,4S-monatin [2, 11]: 12.7 mM; 4R selectivity ([2]; 30° C.): 52%; (2R,4R)-monatin produced [3]: 13.8 mM; (2R,4S)-monatin produced [3]: 12.7 mM

B2: pUCBMDAT: wild-type D-aminotransferase derived from Bacillus macerans AJ1617 (SEQ ID NO:2), expressed in E. coli (protein)
chain: MAYSLWNDQIVEEGSIAISPEDRGYQFGDGIYEVIKVYNGNMFTAQEHIDRFYASAEKIRLVIPYTKDVLHKLLHELIEKNNLETGHVYFQITRGANSRNHVFPDASIPAVLTGNVKAGERAYENFEKGVKATFVEDIRWLRCDIKSLNLLGAVLAKQEAAEKGCYEAILHRGDIVTECSSANVYGIKDGKLYTHPANNFILNGITRQVILKCAEEINLPVIEEPMTKADLLTMDEIIVSSVSSEVTPVIDVDGNQIGAGVPGEWTRQLQQSFEAKLPLSMNTK
modifications: Bacillus macerans
What does the source list for B2?
2R,4R-PHG [4, 11]: 19.2 mM; 2R,4S-PHG [4, 11]: 17.1 mM; 4R selectivity (ratio of (2R,4R) isomer out of total 2R-PHG) ([4]; 30° C.): 53%; DAT activity [5]: 6.3 U/mg; 2R,4R-monatin [6, 12]: 19.1 mM; 2R,4S-monatin [6, 12]: 18.3 mM; 4R selectivity ([6]; 30° C.): 51%; 2R,4R-PHG [7, 12]: 34.2 mM; 2R,4S-PHG [7, 12]: 34.9 mM; 4R selectivity ([7]; 30° C.): 49%; (2R,4R)-PHG produced [8]: 19.2 mM; (2R,4S)-PHG produced [8]: 17.1 mM; (2R,4R)-monatin produced [9]: 17.0 mM; (2R,4S)-monatin produced [9]: 16.4 mM; 2R,4R-monatin [10, 11]: 17.0 mM; 2R,4S-monatin [10, 11]: 16.4 mM; 4R selectivity (ratio of (2R,4R) isomer out of total 2R-monatin) ([10]; 30° C.): 51%
